This test concerns the target T1, Wsp1p poly (p)-VCA (residues 129-574 including the polyproline domain and VCA) (S. pombe, UniProt O36027 129-574).
T1 sequence (looked up): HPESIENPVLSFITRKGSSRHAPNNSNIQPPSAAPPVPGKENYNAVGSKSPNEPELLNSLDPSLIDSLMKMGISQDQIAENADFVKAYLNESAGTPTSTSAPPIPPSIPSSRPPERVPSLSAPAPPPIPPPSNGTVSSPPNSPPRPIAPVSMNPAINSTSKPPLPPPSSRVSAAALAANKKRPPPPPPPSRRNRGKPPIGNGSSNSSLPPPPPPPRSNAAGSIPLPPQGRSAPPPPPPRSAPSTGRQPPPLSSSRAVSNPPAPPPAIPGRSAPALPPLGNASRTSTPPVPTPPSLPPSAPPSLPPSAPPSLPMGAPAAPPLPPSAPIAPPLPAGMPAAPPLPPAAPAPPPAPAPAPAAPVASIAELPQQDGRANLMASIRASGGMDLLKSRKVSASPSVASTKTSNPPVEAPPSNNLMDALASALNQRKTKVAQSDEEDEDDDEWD
Put plainly: pull-down.

Broadly, the Kd is the constant that tells how readily two partners part at equilibrium. A high value points to a looser complex.

B1: GST-Bzz1pSH3 (residues 586-642) (domain or fragment, S. pombe, UniProt Q09746 586-642, looked up)
chain: SSYVKALYAYTAQSDMELSIQEGDIIQVTNRNAGNGWSEGILNGVTGQFPANYVTDV
B1 yielded a Kd of about 2000 nM.

B2: GST-Bzz1pSH3SH3 (residues 521-642) (domain or fragment, S. pombe, UniProt Q09746 521-642, looked up)
chain: VVLYDFTGEHEGVITASEGQEFTLLEPDDGSGWVRVKIDGTDGLIPASYVKLNDELNTSVTLDGDSSYVKALYAYTAQSDMELSIQEGDIIQVTNRNAGNGWSEGILNGVTGQFPANYVTDV
The molecule B2 registered a Kd of about 100 nM.

The values are drawn from paper PMC3350781 (Current Biology, 2011).
